Experimental data reported in patent US5770430, “Cellular injury response element and uses thereof” (Research Development Foundation).

Biological target: Sp1 (Homo sapiens, UniProt P08047 P08047:2-785)
Assay: EMSA; poly dI/dC, Mg, Zn, room temperature
Conditions: label: 32P
Method: 50,000 CPM of the cellular injury response element, 1 μg poly dI/dC, 10 μg nuclear extract or 2 footprinting units of human Sp1 protein (Promega, Madison, Wis.) were suspended in 12.5 mM HEPES, pH 7.8, 50 mM KCl, 6.25 mM MgCl_2, 5 μM ZnSO_4, 10% glycerol, and 0.05% Nonidet P-40 and incubated for 30 minutes at room temperature. The bands were separated on a 4% polyacrylamide/0.5 X TBE (45 mM Tris-borate, […]) gel, dried and were visualized using the Molecular Imager System (Bio-Rad, Hercules, Calif.). Supershift assays were performed as above with the addition of […] anti-Sp1 antibody (PEP2, Santa Cruz Biotechnology, Inc.) or non-specific rabbit antibody to the reaction mixture after the 30 minute incubation and incubating for an additional 30 minutes.
Nuclear extracts were incubated with ^32P-labeled cellular injury response element and separated on a 0.5X TBE/4% polyacrylamide gel. […] However, no shift was observed when nuclear extracts were incubated with the Sp 1-mutant cellular injury response element (labeled A in FIGS. 7 and 8; a non-specifically shifted band is labeled A in both FIGS. 7 and 8). Thus, the binding of the protein responsible for the gel shift of the cellular injury response element is dependent upon the presence of functional Sp1 site within the cellular injury response element.

Sp1, sequence (P08047 2-785, one chain of several): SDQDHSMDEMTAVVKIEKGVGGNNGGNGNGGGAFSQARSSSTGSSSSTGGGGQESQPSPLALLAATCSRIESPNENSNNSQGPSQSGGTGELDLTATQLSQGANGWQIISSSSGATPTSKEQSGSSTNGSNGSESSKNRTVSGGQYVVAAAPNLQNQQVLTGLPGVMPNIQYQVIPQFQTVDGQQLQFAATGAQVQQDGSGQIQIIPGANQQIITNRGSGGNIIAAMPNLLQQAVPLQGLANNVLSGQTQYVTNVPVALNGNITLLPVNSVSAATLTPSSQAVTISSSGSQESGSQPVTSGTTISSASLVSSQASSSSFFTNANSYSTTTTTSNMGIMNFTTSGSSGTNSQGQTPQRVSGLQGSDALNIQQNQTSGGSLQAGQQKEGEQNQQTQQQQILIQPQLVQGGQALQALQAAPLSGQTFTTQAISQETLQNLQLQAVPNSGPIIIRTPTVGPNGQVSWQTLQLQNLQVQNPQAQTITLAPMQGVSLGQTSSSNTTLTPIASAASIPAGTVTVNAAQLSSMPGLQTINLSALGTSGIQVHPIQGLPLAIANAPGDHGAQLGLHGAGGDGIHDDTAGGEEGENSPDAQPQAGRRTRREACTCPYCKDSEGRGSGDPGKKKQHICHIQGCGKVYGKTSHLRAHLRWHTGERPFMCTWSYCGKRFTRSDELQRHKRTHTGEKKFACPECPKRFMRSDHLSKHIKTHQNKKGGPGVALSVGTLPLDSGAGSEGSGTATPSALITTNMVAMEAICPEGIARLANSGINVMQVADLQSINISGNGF

B1: CIRE (GADD153 -74 to -35) (dsDNA)
DNA 1: AGGCTCCTGGGTCCCGCCCCCCAAAAGAGGGGACGGGCC
DNA 2: GGCCCGTCCCCTCTTTTGGGGGGCGGGACCCAGGAGCCT
- binding result: binds
